{"source": "patent US20090324601A1", "about": "(published 2009)", "binders": {"B1": {"name": "2.1954.2 (antibody, V domains shown)", "VH": "QVQLVESGGGVVQPGRSLRLSCAASGFSFSIYGMHWVRQAPGKGLEWVAVIWFDGSNKYYADSVKGRFTISRDNSKNTLYLQMNSLRAEDTALYYCARDKASYYGSGMDYWGQGTLVTVSS", "VL": "EIVLTQSPGTLSLSPGERATLSCRASQSVSSTYLAWYQHRPGQAPRLLISGASRRATGIPDRFSGSGSGTDFTLTISRLEPEDFAVYYCQHYGSSFTWTFGQGTKVEIK"}, "B2": {"name": "3.805.1.3 (antibody, V domains shown)", "VH": "QVQLVESGGGVVQPGRSLRLSCAASGFTFSSYGMHWVRQAPGKGLEWVAVIWYDRSNKYYADSVKGRFTISRDNSKNTLYLQMNSLRAEDTAVYYCAGGRSRGAFDYWGQGTLVTVSS", "VL": "DIQMTQSPSSVSASVGDRVTITCRASQGISSWLAWYQQKPGKAPNLLIYAASSLQSGVPSRFSGSGSGTDFTLTISSLQPEDFATYYCQRTNNFPRTFGQGTKVEIK"}, "B3": {"name": "3.457.3.1 (antibody, V domains shown)", "VH": "QVQLVESGGGVVQPGRSLRLSCAASGFTFSSYGMHWVRQAPGKGLEWVAVIWYDRSNKYYADSVKGRFTISRDNSKNTLYLQMNSLRAEDTAVYYCAGGRSRGAFDFWGQGTLVTVSS", "VL": "DIQMTQSPSSVSASVGDRVTITCRASQGISSWLAWYQQKAGKAPKLLIYSASSLQSGVPSRFSGSGSGTDFTLTISSLQPEDFATYYCQRTNSFPRTFGQGTKVEIK"}, "B4": {"name": "3.472.1.1 (antibody, V domains shown)", "VH": "QVQLVESGGGVVQPGRSLRLSCAASGFTFSSYGMHWVRQAPGKGLEWVAVIWYDRSNKYYVDSVKGRFTISRDNSKNTLYLQMNSLRAEDTAVYYCAGGRSRGAFDYWGQGTLVTVSS", "VL": "DIQMTQSPSSVSASVGDRVTITCRASQDISSWLAWYQQKPGKAPKLLIFAASSLQSGVPSRFSGSGSGTDFTLTISSLQPEDFATYYCQRTSSFPRTFGQGTKVEIK"}, "B5": {"name": "3.818.4 (antibody, V domains shown)", "VH": "EVQLVESGGGLVQPGGSLRLSCAASGFTFSSYSMNWVRQAPGKGLEWVSYISGSSTTMYYADSVKGRFTISRDNAKNSLYLQMNSLRDEDTAVYYCARLRHFDWSYAFDIWGQGTMVTVSS", "VL": "DIQMTQSPSSVSTSVGDRVTITCRASQGISSWLAWYQQRPGKAPKLLIYAASSLQSGVPSRFSGSGSGTDFTLTISSLQPEDFATYFCQQATSFPFTFGPGTKVGIK"}, "B6": {"name": "3.87.1.1 (antibody, V domains shown)", "VH": "QVQLVESGGGVVQPGRSLRLSCAASGFTFSSYGMHWVRQAPGKGLEWVAVIWYDRSNKYYADSVKGRFTISRDNSKNTLYLQMNSLRAEDTAVYYCAGGRSRGAFDYWGQGTLVTVSS", "VL": "DIQMTQSPSSVSASVGDRVTITCRASQGISSWLAWYQQKPGKAPKLLIFAASSLQSGVPSRFSGSGSGTDFTLTISSLQPEDFATYYCQRTNSFPRTFGQGTKVEIK"}, "B7": {"name": "2.2002.3 (antibody, V domains shown)", "VH": "QVQLVESGGGVVQPGRSLRVSCAASGFMFRSYGMHWVRQAPGKGLEWVAVIWHDGSNKNHGDSVKGRFTISRDNSKNTLYLQMNSLRAEDTAVYYCARGRLAGGGPYYYYYYGMDVWGQGTTVTVSS", "VL": "not shown"}, "B8": {"name": "2.1954.2 (antibody, V domains shown)", "VH": "QVQLVESGGGVVQPGRSLRLSCAASGFSFSIYGMHWVRQAPGKGLEWVAVIWFDGSNKYYADSVKGRFTISRDNSKNTLYLQMNSLRAEDTALYYCARDKASYYGSGMDYWGQGTLVTVSS", "VL": "EIVLTQSPGTLSLSPGERATLSCRASQSVSSTYLAWYQHRPGQAPRLLISGASRRATGIPDRFSGSGSGTDFTLTISRLEPEDFAVYYCQHYGSSFTWTFGQGTKVEIK"}, "B9": {"name": "3.457.3.1 (antibody, V domains shown)", "VH": "QVQLVESGGGVVQPGRSLRLSCAASGFTFSSYGMHWVRQAPGKGLEWVAVIWYDRSNKYYADSVKGRFTISRDNSKNTLYLQMNSLRAEDTAVYYCAGGRSRGAFDFWGQGTLVTVSS", "VL": "DIQMTQSPSSVSASVGDRVTITCRASQGISSWLAWYQQKAGKAPKLLIYSASSLQSGVPSRFSGSGSGTDFTLTISSLQPEDFATYYCQRTNSFPRTFGQGTKVEIK"}, "B10": {"name": "3.772.2 (antibody, V domains shown)", "VH": "QVQLVESGGGVVQPGRSLRLSCAASGFTFSSYGMHWVRQAPGKGLEWVAVIWYDRSNKYYADSVKGRFTISRDNSKNTLYLQMNSLRAEDTAVYYCAGGRSRGAFDFWGQGTLVTVSS", "VL": "DIQMTQSPSSVSASVGDRVTITCRASQDISSWLAWYQQKAGKAPKLLIYAASSLQSGVPSRFSGSGSGTDFTLTISSLQPEDFATYYCQRTNSFPRTFGQGTKVEIK"}, "B11": {"name": "3.805.1.3 (antibody, V domains shown)", "VH": "QVQLVESGGGVVQPGRSLRLSCAASGFTFSSYGMHWVRQAPGKGLEWVAVIWYDRSNKYYADSVKGRFTISRDNSKNTLYLQMNSLRAEDTAVYYCAGGRSRGAFDYWGQGTLVTVSS", "VL": "DIQMTQSPSSVSASVGDRVTITCRASQGISSWLAWYQQKPGKAPNLLIYAASSLQSGVPSRFSGSGSGTDFTLTISSLQPEDFATYYCQRTNNFPRTFGQGTKVEIK"}, "B12": {"name": "3.472.1.1 (antibody, V domains shown)", "VH": "QVQLVESGGGVVQPGRSLRLSCAASGFTFSSYGMHWVRQAPGKGLEWVAVIWYDRSNKYYVDSVKGRFTISRDNSKNTLYLQMNSLRAEDTAVYYCAGGRSRGAFDYWGQGTLVTVSS", "VL": "DIQMTQSPSSVSASVGDRVTITCRASQDISSWLAWYQQKPGKAPKLLIFAASSLQSGVPSRFSGSGSGTDFTLTISSLQPEDFATYYCQRTSSFPRTFGQGTKVEIK"}, "B13": {"name": "3.23.3 (antibody, V domains shown)", "VH": "QVQLVESGGGVVQPGRSLRLSCAASGFTFSRYGMHWVRQAPGKGLEWVAVIWYDGRNKYYVDSVKGRFTISRDNSKNTLYLQMNSLRAEDTAVYYCVGVGITVTGAFDYWGQGTLVTVSS", "VL": "EIVMTQSPATLSVSPGERATLSCRASQSVRSNLAWYQQKPGQAPRLLIYGASTRVTDIPTRFSGSGSGTEFTLSISSLQSEDFAVYYCQQYNNWPRTFGQGTKVEIK"}, "B14": {"name": "5.1.1.1 (antibody, V domains shown)", "VH": "QVQLVQSGAEVKKPGASVKVSCKASGYTFTSYDINWVRQATGQGLEWMGWMNPNSGNTGYAQQFQGRVTMTRNTSITTAYMELSSLRSEDTAVYYCAREEYSSSLFDSWGQGTLVTVSS", "VL": "DIQMTQSPSSLSASVGDRVTITCRASQGIRNNLGWFQQKPGKAPKRLIYAASSLQSGVPSRFSGSGSGTKFTLTISSLQPEDFATYFCLQHNRYPLTFGGGTKVEIK"}, "B15": {"name": "2.1576.1.2 (antibody, V domains shown)", "VH": "EVQLVESGGGLVQPGGSLRLSCAASGFTFSSYWMSWVRQAPGKGLEWVANIKQDGSEKYYVDSVKGRFTISRDNAKNSLYLQMNSLRAEDTAVYYCARWGVFGSGSYYIPFDYWGQGTLVTVSS", "VL": "DIQMTQSPSSLSASVGDRVTITCRASQGIRNYLAWFQQKPGKAPKSLIYAASSLQSGVPSTFSGSGSGTHFTLTISSLQPEDFASYFCQQYEIYPLTFGGGTKVEIK"}, "B16": {"name": "4.16.2 (antibody, V domains shown)", "VH": "not shown", "VL": "DIQMTQSPSSLSASVGDRVTITCRASQVIANYLAWYQQKPGKVPKLLIYAASTLQSGVPSRFSGSGSGTDFTLTISSLQPEDVATYYCHTYKSAPWTFGQGTKVEIK"}, "B17": {"name": "3.818.4 (antibody, V domains shown)", "VH": "EVQLVESGGGLVQPGGSLRLSCAASGFTFSSYSMNWVRQAPGKGLEWVSYISGSSTTMYYADSVKGRFTISRDNAKNSLYLQMNSLRDEDTAVYYCARLRHFDWSYAFDIWGQGTMVTVSS", "VL": "DIQMTQSPSSVSTSVGDRVTITCRASQGISSWLAWYQQRPGKAPKLLIYAASSLQSGVPSRFSGSGSGTDFTLTISSLQPEDFATYFCQQATSFPFTFGPGTKVGIK"}, "B18": {"name": "3.87.1.1 (antibody, V domains shown)", "VH": "QVQLVESGGGVVQPGRSLRLSCAASGFTFSSYGMHWVRQAPGKGLEWVAVIWYDRSNKYYADSVKGRFTISRDNSKNTLYLQMNSLRAEDTAVYYCAGGRSRGAFDYWGQGTLVTVSS", "VL": "DIQMTQSPSSVSASVGDRVTITCRASQGISSWLAWYQQKPGKAPKLLIFAASSLQSGVPSRFSGSGSGTDFTLTISSLQPEDFATYYCQRTNSFPRTFGQGTKVEIK"}, "B19": {"name": "3.625.1.7 (antibody, V domains shown)", "VH": "QVQLVESGGGVVQPGRSLRLSCAASGFTFSSYGMHWVRQAPGKGLEWVAVIWYDRSNKYYADSVKGRFTISRDNSKNTLYLQMDSLRAEDTAVYYCAGGRSRGAFDYWGQGTLVTVSS", "VL": "DIQMTQSPSSVSASVGDRVTITCRASQGISSWLAWYQQKPGKAPKLLIYAASSLQSGVPSRFSGSGSGTDFTLTISSLQPEDFATYYCQRTNSFPRTFGQGTKVEIK"}, "B20": {"name": "5.9.3 (antibody, V domains shown)", "VH": "not shown", "VL": "DIQMTQSPSSLSASVGDRVSITCRASQGIRNDLGWYQQKPGKAPTRLIYAASSLQSGVPSRFSGSGSGTEFTLTISSLQPEDFASYYCLQHNSFPWTFGQGTKVEIK"}, "B21": {"name": "3.23.2 (antibody, V domains shown)", "VH": "EVQLVESGGGLVQPGGSLRLSCAASGFTFSNFWMSWVRQAPGKGLEWVANIKHGGSEKYYVDSVKGRFTISRDNAKNSLYLQMNRLRAEDTAVYYCARDPMYYFDYWGQGTLVTVSS", "VL": "DIQMTQSPSSLSASVGDRVTITCRASQDIRNDLDWYQQKPGKAPKRLIYAASSLQSGVPSRFSGSGSGTEFTLTISSLQPEDFATYYCLQHNGYPRSFGQGTKLEIK"}, "B22": {"name": "2.2002.3 (antibody, V domains shown)", "VH": "QVQLVESGGGVVQPGRSLRVSCAASGFMFRSYGMHWVRQAPGKGLEWVAVIWHDGSNKNHGDSVKGRFTISRDNSKNTLYLQMNSLRAEDTAVYYCARGRLAGGGPYYYYYYGMDVWGQGTTVTVSS", "VL": "not shown"}}, "data": [{"target": "PDGFR-alpha on MG-63 cells (human, UniProt P16234 24-1089)", "sequence (P16234 24-1089)": "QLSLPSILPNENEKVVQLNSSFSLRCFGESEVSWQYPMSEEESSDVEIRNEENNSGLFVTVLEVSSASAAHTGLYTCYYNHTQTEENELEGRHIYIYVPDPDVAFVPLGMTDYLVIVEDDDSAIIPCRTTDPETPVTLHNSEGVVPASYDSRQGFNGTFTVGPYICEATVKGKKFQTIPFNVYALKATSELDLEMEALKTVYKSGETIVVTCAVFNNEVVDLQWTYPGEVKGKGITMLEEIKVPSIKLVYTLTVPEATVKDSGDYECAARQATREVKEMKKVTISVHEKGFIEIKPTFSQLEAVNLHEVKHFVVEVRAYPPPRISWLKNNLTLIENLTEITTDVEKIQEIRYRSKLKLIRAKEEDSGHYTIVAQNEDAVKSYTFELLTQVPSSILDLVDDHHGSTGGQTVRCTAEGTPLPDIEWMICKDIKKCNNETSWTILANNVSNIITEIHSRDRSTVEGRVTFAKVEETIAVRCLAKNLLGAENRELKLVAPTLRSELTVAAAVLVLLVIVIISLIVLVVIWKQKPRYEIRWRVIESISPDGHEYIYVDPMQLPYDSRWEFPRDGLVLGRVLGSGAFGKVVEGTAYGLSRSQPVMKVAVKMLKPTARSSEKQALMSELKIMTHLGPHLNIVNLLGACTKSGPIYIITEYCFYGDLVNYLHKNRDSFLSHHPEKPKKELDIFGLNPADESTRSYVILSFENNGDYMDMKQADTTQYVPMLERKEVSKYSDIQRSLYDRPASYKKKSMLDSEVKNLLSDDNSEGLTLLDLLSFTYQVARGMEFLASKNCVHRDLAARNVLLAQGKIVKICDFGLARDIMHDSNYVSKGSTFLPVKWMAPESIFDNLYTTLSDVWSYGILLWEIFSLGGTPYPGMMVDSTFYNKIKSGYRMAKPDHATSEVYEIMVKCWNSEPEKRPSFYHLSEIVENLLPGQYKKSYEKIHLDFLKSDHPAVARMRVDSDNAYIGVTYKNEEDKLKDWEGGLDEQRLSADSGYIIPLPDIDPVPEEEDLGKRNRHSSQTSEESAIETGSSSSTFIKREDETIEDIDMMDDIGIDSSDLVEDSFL", "assay": "cell-based or functional assay", "units": {"Average pTyr Inhibition": "%"}, "values": [{"binder": "B1", "Average pTyr Inhibition": "> 100"}, {"binder": "B2", "Average pTyr Inhibition": 92}, {"binder": "B3", "Average pTyr Inhibition": "> 100"}, {"binder": "B4", "Average pTyr Inhibition": 95}, {"binder": "B5", "Average pTyr Inhibition": "> 100"}, {"binder": "B6", "Average pTyr Inhibition": "> 100"}, {"binder": "B7", "Average pTyr Inhibition": "> 100"}]}, {"target": "PDGFR-alpha on human osteosarcoma MG-63 cells (human, UniProt P16234 24-1089)", "sequence (P16234 24-1089)": "as above", "assay": "cell-based or functional assay", "units": {"pTyr Assay: % Inhibition @ 2 µg/ml": "%", "Proliferation Assay: IC50 ng/ml (1-6-06)": "ng/mL"}, "values": [{"binder": "B8", "pTyr Assay: % Inhibition @ 2 µg/ml": -3}, {"binder": "B9", "pTyr Assay: % Inhibition @ 2 µg/ml": 85}, {"binder": "B10", "Proliferation Assay: IC50 ng/ml (1-6-06)": 168, "pTyr Assay: % Inhibition @ 2 µg/ml": 56}, {"binder": "B11", "Proliferation Assay: IC50 ng/ml (1-6-06)": 1020, "pTyr Assay: % Inhibition @ 2 µg/ml": 58}, {"binder": "B12", "pTyr Assay: % Inhibition @ 2 µg/ml": 61}, {"binder": "B13", "Proliferation Assay: IC50 ng/ml (1-6-06)": 61.9, "pTyr Assay: % Inhibition @ 2 µg/ml": 84}, {"binder": "B14", "Proliferation Assay: IC50 ng/ml (1-6-06)": "> 10000", "pTyr Assay: % Inhibition @ 2 µg/ml": 77}, {"binder": "B15", "Proliferation Assay: IC50 ng/ml (1-6-06)": "> 10000", "pTyr Assay: % Inhibition @ 2 µg/ml": 65}, {"binder": "B16", "Proliferation Assay: IC50 ng/ml (1-6-06)": "> 10000", "pTyr Assay: % Inhibition @ 2 µg/ml": 74}, {"binder": "B17", "Proliferation Assay: IC50 ng/ml (1-6-06)": 4600, "pTyr Assay: % Inhibition @ 2 µg/ml": 92}, {"binder": "B18", "Proliferation Assay: IC50 ng/ml (1-6-06)": 6240, "pTyr Assay: % Inhibition @ 2 µg/ml": 69}, {"binder": "B19", "Proliferation Assay: IC50 ng/ml (1-6-06)": 3820, "pTyr Assay: % Inhibition @ 2 µg/ml": -3}, {"binder": "B20", "Proliferation Assay: IC50 ng/ml (1-6-06)": 2.2, "pTyr Assay: % Inhibition @ 2 µg/ml": 31}, {"binder": "B21", "Proliferation Assay: IC50 ng/ml (1-6-06)": 150, "pTyr Assay: % Inhibition @ 2 µg/ml": 26}, {"binder": "B22", "pTyr Assay: % Inhibition @ 2 µg/ml": -9}]}]}
